Reference: patent publication US20040106148A1, “Polypeptides” (priority 2000, published 2004)
One block for each molecule: values may come before it.

Tests used:
Type in all cases: binding
[1] = Protein-lipid overlay, panel of phosphoinositides; conditions: GST fusion protein; for Interaction with any phosphoinositide tested: FIG. 2 / FIG. 4A; for Binding to any other phosphoinositide (than the one bound): FIG. 2
Experimental: (§1) FIG. 2. Phosphoinositide binding properties of the novel PH domains. The ability of the indicated GST fusion proteins to bind a variety of phosphoinositides was analysed using a protein-lipid overlay. Serial dilutions of the indicated phosphoinositides (100 pmol, 50 pmol, 25 pmol, 12.5 pmol, 6.3 pmol, 3.1 pmol and 1.6 pmol) were spotted onto a nitrocellulose membranes which were then incubated with the purified GST fusion proteins. The membranes were washed and the GST-fusion proteins bound to the membrane by virtue of their interaction with lipid were detected using a GST antibody. A representative of at least 3 separate experiments carried out is shown.
FIG. 4. Comparison of the phosphoinositide binding properties of the N-terminal and C-terminal PH domains of TAPP1 and TAPP2. The ability of wild type and mutant forms of full length (FL) and isolated N-terminal (NT) and C-terminal (CT) PH domains of TAPP1 and TAPP2 GST-fusion proteins to interact with phosphoinositides were analysed using a protein-lipid overlay. Serial dilutions of the indicated phosphoinositides (100 pmol, 50 pmol, 25 pmol, 12.5 pmol, 6.3 pmol, 3.1 pmol and 1.6 pmol) were spotted onto a nitrocellulose membrane which was then incubated with the indicated purified GST fusion proteins. The membranes were washed and the GST-fusion proteins bound to the membrane by virtue of their interactions with lipid were detected using a GST antibody. A representative experiment of three is shown. The isolated N-terminal PH domain of human TAPP1 comprises residues 1 to 147, the isolated C-terminal PH domain of human TAPP1 comprises residues 95 to 404, the isolated N-terminal PH domain of mouse TAPP2 comprises residues 1 to 131 and the isolated C-terminal PH of mouse TAPP2 comprises residues 174 to 425.
Protein-Lipid overlay. To assess the phosphoinositide binding properties of each PH domain, a protein-lipid overlay assay was performed using the GST fusion proteins as described previously. Briefly, 1 μl of lipid solution containing 1-100 pmol of phospholipids dissolved in a mixture of choroform:methanol:water (1:2:0.8) was spotted onto Hybond-C extra membrane and allowed to dry at room temperature for 1 h. The membrane was blocked in 3% (by mass) fatty acid-free BSA in TBST (50 mM Tris/HCl pH 7.5, 150 mM NaCl and 0.1% Tween-20 (by vol) for lh. The membrane was then incubated overnight at 4° C. with gentle agitation in the same solution containing 0.2 μg/ml of the indicated GST fusion protein. The membranes were washed 6 times over 30 min in TBST and then incubated for 1 h with 1/1000 dilution of anti-GST monoclonal antibody (Sigma). The membranes were washed as before, then incubated for 1 h with 1/5000 dilution of anti-mouse-HRP conjugate (Pierce). Finally, the membranes were washed 12 times over 1 h in TBST and the GST-fusion protein bound to the membrane by virtue of its interaction with phospholipid was detected by enhanced chemiluminescence.
We studied the specificity and affinity of interaction of the PH domains for phosphoinositide lipids using either a “protein-lipid overlay” assay (FIG. 2) or the more quantitative surface plasmon resonance based approach (Table 2). For the protein-lipid overlay assay, serial dilutions of phosphoinositides were spotted on to a nitrocellulose membrane and incubated with the indicated GST PH domain fusion protein or GST-DAPP1 (that binds PtdIns(3,4,5)P3 and PtdIns(3,4)P2 [4]), GST-GRP1 (that binds only PtdIns(3,4,5)P3 [8]) and GST-phospholipase Cδ1 (that binds only PtdIns(4,5)P2 (Ferguson et al (1995) Cell 83, 1037-1046)) as controls. The membranes were then washed and immunoblotted with a GST antibody to detect GST fusion proteins bound to the membrane by virtue of their interaction with lipid. […]

Protein-lipid overlay [2] = conditions: GST fusion protein, lipid spotted 1.6-100 pmol on membrane, FIG. 2 / FIG. 4
Experimental: as §1
FIG. 4. […] The ability of wild type and mutant forms of full length (FL) and isolated N-terminal (NT) and C-terminal (CT) PH domains of TAPP1 and TAPP2 GST-fusion proteins to interact with phosphoinositides were analysed using a protein-lipid overlay. […] The membranes were washed and the GST-fusion proteins bound to the membrane by virtue of their interactions with lipid were detected using a GST antibody. […]
We studied the specificity and affinity of interaction of the PH domains for phosphoinositide lipids using either a “protein-lipid overlay” assay (FIG. 2) or the more quantitative surface plasmon resonance based approach (Table 2). […]

Protein-lipid overlay [3] = conditions: GST fusion protein, dipalmitoyl lipid spotted on membrane, FIG. 2
Experimental: as §1
(§2) Protein-Lipid overlay. To assess the phosphoinositide binding properties of each PH domain, a protein-lipid overlay assay was performed using the GST fusion proteins as described previously. […]
(§3) We studied the specificity and affinity of interaction of the PH domains for phosphoinositide lipids using either a “protein-lipid overlay” assay (FIG. 2) or the more quantitative surface plasmon resonance based approach (Table 2). […] For the surface plasmon resonance based assay, the apparent Kd values of the GST PH domain fusion proteins resulting from their interaction with a supported lipid monolayer containing a low mole fraction of phosphoinositide, was determined (Table 2).

Protein-lipid overlay [4] = conditions: GST fusion protein, lipid spotted on membrane, FIG. 2 / FIG. 11
Experimental: as §1
Methods used are equivalent to those specified in the legend to FIG. 2.
as §2, §3

Binding to any other phosphoinositide (than the one bound) [1]: interacted more weakly
B4: evectin-2: GST fusion of human evectin-2 residues 1 to 167 (protein, UniProt Q96CS7 1-167, looked up, fragment)
chain: MAFVKSGWLLRQSTILKRWKKNWFDLWSDGHLIYYDDQTRQNIEDKVHMPMDCINIRTGQECRDTQPPDGKSKDCMLQIVCRDGKTISLCAESTDDCLAWKFTLQDSRTNTAYVGSAVMTDETSVVSSPPPYTAYAAPAPEQAYGYGPYGGAYPPGTQVVYAANGQA
modifications: GST fusion

Binding to any other phosphoinositide (than the one bound) [1]: did not bind
B6: PH domain of mouse centaurin-β2: GST fusion of mouse centaurin-β2 residues 266 to 390, expressed in 293 cells (protein, UniProt Q6ZQK5 266-390, looked up, fragment)
chain: GIVMEGYLFKRASNAFKTWNRRWFSIQNNQLVYQKKFKDSPTVVVEDLRLCTVKHCEDIERRFCFEVVSPTKSCMLQADSEKLRQAWIKAVQTSIATAYREKGDESEKLDKKSSPSTGSLDSGNE
modifications: PH domain GST fusion
notes: GST fusion of mouse centaurin-β2 residues 266 to 390, expressed in 293 cells

Binding to any other phosphoinositide (than the one bound) [1]: did not bind
B7: FAPP1: GST fusion of the PH domain of human FAPP1 (residues 1 to 99), PtdIns-Four-phosphate AdaPtor Protein-1, expressed in E. coli (protein, UniProt Q9HB20 1-99, looked up, fragment)
chain: MEGVLYKWTNYLTGWQPRWFVLDNGILSYYDSQDDVCKGSKGSIKMAVCEIKVHSADNTRMELIIPGEQHFYMKAVNAAERQRWLVALGSSKACLTDTR
modifications: PH domain GST fusion
notes: GST fusion of the PH domain of human FAPP1 (residues 1 to 99), PtdIns-Four-phosphate AdaPtor Protein-1, expressed in E. coli
Interaction with PtdIns4P (Protein-lipid overlay [4]): high affinity

Binding to any other phosphoinositide (than the one bound) [1]: did not bind
B8: CT-PH TAPP1: GST fusion of isolated C-terminal PH domain of human TAPP1, residues 95 to 404 (protein, UniProt Q9HB21 95-404, looked up, fragment)
chain: NDQQDLVEWVNVLNKAIKITVPKQSDSQPNSDNLSRHGECGKKQVSYRTDIVGGVPIITPTQKEEVNECGESIDRNNLKRSQSHLPYFTPKPPQDSAVIKAGYCVKQGAVMKNWKRRYFQLDENTIGYFKSELEKEPLRVIPLKEVHKVQECKQSDIMMRDNLFEIVTTSRTFYVQADSPEEMHSWIKAVSGAIVAQRGPGRSASSEHPPGPSESKHAFRPTNAATATSHSTASRSNSLVSTFTMEKRGFYESLAKVKPGNFKVQTVSPREPASKVTEQALLRPQSKNGPQEKDCDLVDLDDASLPVSDV
modifications: C-terminal PH domain GST fusion
Interaction with PtdIns(3,4)P2 (Protein-lipid overlay [2]): interacted with PtdIns(3,4)P2
Interaction with PtdIns(3,4,5)P3 (Protein-lipid overlay [3]): did not bind

More lines, now with the values behind:

B1: N-terminal PH domain of TAPP2: GST fusion of isolated N-terminal PH domain of mouse TAPP2, residues 1 to 131 (protein, UniProt Q9ERS5 1-131, looked up, fragment)
chain: MPYVDRQNRICGFLDIEDNENSGKFLRRYFILDTQANCLLWYMDNPQNLAVGAGAVGSLQLTYISKVSIATPKQKPKTPFCFVINALSQRYFLQANDQKDLKDWVEALNQASKITVPKAGTVPLATEVLKN
modifications: N-terminal PH domain GST fusion
Interaction with any phosphoinositide tested [1]: failed to interact

B2: C-terminal PH domain of TAPP2: GST fusion of isolated C-terminal PH domain of mouse TAPP2, residues 174 to 425 (protein, UniProt Q9ERS5 174-425, looked up, fragment)
chain: GTHAFLRRSQSYIPTSGCRPSTGPPLIKSGYCVKQGNVRKSWKRRFFALDDFTICYFKCEQDREPLRTIPLKDVLKTHECLVKSGDLLMRDNLFEIITTSRTFYVQADSPEDMHSWIEGIGAAVQALKCHPREPSFSRSISLTRPGSSTLTSAPNSILSRRRPPAEEKRGLCKAPSVASSWQPWTPVPQAEEKPLSVEHAPEDSLFMPNPGESTATGVLASSRVRHRSEPQHPKEKPFVFNLDDENIRTSDV
modifications: C-terminal PH domain GST fusion
Interaction with PtdIns(3,4)P2 (Protein-lipid overlay [2]): interacted with PtdIns(3,4)P2
Interaction with PtdIns(3,4,5)P3 (Protein-lipid overlay [3]): did not bind
Binding to any other phosphoinositide (than the one bound) [1]: did not bind

B3: NT-PH TAPP1: GST fusion of isolated N-terminal PH domain of human TAPP1, residues 1 to 147 (protein, UniProt Q9HB21 1-147, looked up, fragment)
chain: MPYVDRQNRICGFLDIEENENSGKFLRRYFILDTREDSFVWYMDNPQNLPSGSSRVGAIKLTYISKVSDATKLRPKAEFCFVMNAGMRKYFLQANDQQDLVEWVNVLNKAIKITVPKQSDSQPNSDNLSRHGECGKKQVSYRTDIVG
modifications: N-terminal PH domain GST fusion
Interaction with any phosphoinositide tested [1]: failed to interact

B5: pleckstrin-2: GST fusion of mouse pleckstrin-2 residues 1 to 249 (protein, UniProt Q9WV52 1-249, looked up, fragment)
chain: MEDGVLKEGFLVKRGHIVHNWKARWFILRQNTLLYYKLEGGRRVTPPKGRIVLDGCTITCPCLEYENRPLLIKLKTRTSTEYFLEACSREERDSWAFEITGAIHAGQPGKIQQLHILKNSFKLPPHISLHRIVDKMHDTSTGIRPSPNMEQGSTYKKTFLGSSLVDWLISSNFAASRLEAVTLASMLMEENFLRPVGVRSMGAIRSGDLAEQFLDDSTALYTFAESYKKKVSSKEEISLSTMELSGTVV
modifications: GST fusion
Interaction with any phosphoinositide tested [1]: interacted with several phosphoinositides
